Experimental data from patent publication US20060252692A1, “Inhibitors for use in hemostasis” (ZymoGenetics, Inc., priority 2002, published 2006).

How the values were obtained:
collagen type VI = molecular target: T1, collagen type VI (Homo sapiens, UniProt P12109+P12110+P12111); assay: Quantitative ELISA binding to collagen type VI; conditions: Zsig37-FITC 0.4 to 4 μg/ml, 10 μg collagen type VI
T1 construct: purchased Chemicon International; Temecula, Calif
Experimental: An ELISA (Enzyme-linked Immunosorbant Assay) was used to measure binding of zsig37 to complement C1q, and to the following matrix proteins: Bovine Collagen Type I (Becton Dickinson; Lincoln Park, N.J.), laminin, vitronectin, fibronectin, human collagen Types II, III, IV, V, VI (Chemicon International; Temecula, Calif.). BSA V (Sigma Chemical Co.) was used as a negative control. Just prior to use, the proteins were diluted in 2× PBS (Phosphate Buffered Saline, Sigma Chemical Co.) to 100 μg/ml and adjusted to pH 7.2 with 0.1 N NaOH. Each protein sample was plated in quadruplicate (100 μl/well) into a 96 well plate. The plate was allowed to dry overnight in a laminar flow hood and washed three times with 400 μl of 5 mg/ml BSA in 1× PBS and blotted dry. Zsig37 was FITC labeled according to manufacturer's instruction (Pierce; Rockford, Ill.). Into each well was added 100 μl of 1.8 μg/ml zsig37-FITC in 5% BSA, PBS. The plates were incubated for 1.5 hours at room temperature then washed 3 time with 5% BSA, PBS. To each well was then added 100 μl of 1:400 mouse anti-FITC/Biotin (Sigma Chemical Co.). […]
The ELISA assay for binding, described above, was modified to quantitatively evaluate binding. […] The luminescence from the SUPERSIGNAL reagent was read on a Wallac 1420 plate reader (Wallac; Gaithersburg Md.) and the intensity used as a quantitative measure of the zsig37-FITC bound to the ELISA plate.

[1] = test system: classical pathway of human Complement serum; assay: Complement hemolysis assay, classical pathway (sheep erythrocytes); type: biochemical
Experimental: Complement assays were performed in 96 well round bottom plates. Gelatin Veronal buffer containing magnesium and calcium (141 mM NaCl, 1.8 mM sodium barbitol, 3.1 mM barbituric acid, 0.1% bovine gelatin, 0.5 mM MgCl2 and 0.15 mM CaCl2) was used for all serum and inhibitor dilutions as well as erythrocyte suspensions. Fifty microliters of standardized human Complement serum (Sigma Chemical Co.), diluted 1/37.5 (for a final dilution of 1/150) was added to each well. The inhibitor was added in triplicate, 50 μl/well. The serum and inhibitor were incubated for thirty minutes at room temperature. The assay was initiated by the addition of 100 μl of 2×10^8/ml unsensitized sheep erythrocytes (Colorado Serum Co.; Denver, Colo.), sensitized sheep erythrocytes, sensitized using the Hemolysin manufacturer's protocol (BioWhittaker Inc.; Walkersville, Md.) and rabbit erythrocytes containing 16 mM EGTA, and 4 mM Mg^++. A human serum dilution series from 1/50 to 1/400 was also plated as an activity control. Erythrocytes, lysed with distilled water and diluted to 100, 75, 50, 25, and 12.5 percent lysis, were used to quantify complement percent lysis. The plate was sealed and incubated at 37° C. for one hour with mixing every 15 minutes. […] The plate was read at 415 nm and percent lysis was calculated.

[2] = test system: CCC4 osteoblast cell line, serum response element (SRE) luciferase; assay: SRE-luciferase assay in CCC4 osteoblast cell line; type: cell-based, mice; conditions: 1000 ng/ml zsig37, four hours
Experimental: Zsig37 polypeptides were assayed in a high throughput, in vitro assay to identify substances that selectively activate cellular responses in immortalized osteoblast cell lines. A mature osteoblast cell line derived from p53−/− (deficient) mice, CCC4, that is transfected with a plasmid containing an inducible serum response element (SRE) driving the expression of luciferase was used in the assay. These cells also express endogenous PTH, PDGF and bFGF receptors.
CCC4 lines were trypsinized and adjusted to 5×10^4 cells/ml in plating medium (alpha-MEM, 1% heat inactivated fetal bovine serum, 1 mM Na pyruvate and 2 mM L-glutamate) and plated (200 μl/well) into Dynatech Microlite opaque white microtiter plates (Dynatech, Chantilly, Va.) and incubated overnight at 37° C., 5% CO2. The growth medium was then aspirated and replaced with 50 μl/well assay medium (F-12 HAM, 0.5% bovine serum albumin, 20 mM HEPES, 1 mM sodium pyruvate and 2 mM L-glutamate). […] Fifty microliters/well of luciferase substrate (Luciferase Assay Reagent, E1501, Promega Corp.) was added and the Luciferase activity was detected using a Labsystems LUMINOSKAN at 2 second/well following a one second delay. The average basal (uninduced) signal was subtracted from readings as a percentage of the maximal induction produced by 3 ng/ml bFGF. […]

T1 sequence (P12109 20-1028): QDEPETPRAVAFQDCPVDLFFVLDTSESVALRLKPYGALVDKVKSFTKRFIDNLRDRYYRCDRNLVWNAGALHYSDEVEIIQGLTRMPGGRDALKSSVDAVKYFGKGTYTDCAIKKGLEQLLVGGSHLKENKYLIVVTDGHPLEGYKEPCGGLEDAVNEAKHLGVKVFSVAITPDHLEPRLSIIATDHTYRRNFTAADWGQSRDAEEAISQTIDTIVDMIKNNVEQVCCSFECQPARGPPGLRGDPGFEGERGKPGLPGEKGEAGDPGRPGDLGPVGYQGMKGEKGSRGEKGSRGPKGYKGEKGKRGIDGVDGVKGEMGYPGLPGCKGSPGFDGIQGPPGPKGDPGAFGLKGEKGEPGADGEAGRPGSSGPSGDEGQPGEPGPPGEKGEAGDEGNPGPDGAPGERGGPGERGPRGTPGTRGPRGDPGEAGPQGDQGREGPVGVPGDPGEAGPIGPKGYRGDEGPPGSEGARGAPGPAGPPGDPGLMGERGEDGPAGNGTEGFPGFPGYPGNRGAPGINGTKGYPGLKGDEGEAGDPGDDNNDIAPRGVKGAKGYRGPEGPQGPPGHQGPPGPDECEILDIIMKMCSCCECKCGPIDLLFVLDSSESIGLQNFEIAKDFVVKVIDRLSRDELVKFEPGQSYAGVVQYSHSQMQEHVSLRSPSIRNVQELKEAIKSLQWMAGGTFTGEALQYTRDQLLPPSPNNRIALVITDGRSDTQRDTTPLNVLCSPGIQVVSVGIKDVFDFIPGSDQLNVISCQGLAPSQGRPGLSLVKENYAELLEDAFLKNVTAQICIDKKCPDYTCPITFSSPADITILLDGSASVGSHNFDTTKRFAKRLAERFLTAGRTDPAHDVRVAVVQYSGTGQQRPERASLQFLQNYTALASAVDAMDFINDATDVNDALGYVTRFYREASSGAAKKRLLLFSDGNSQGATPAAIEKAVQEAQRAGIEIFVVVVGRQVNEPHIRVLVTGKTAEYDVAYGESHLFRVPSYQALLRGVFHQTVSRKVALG
T1 sequence (P12110 21-1019): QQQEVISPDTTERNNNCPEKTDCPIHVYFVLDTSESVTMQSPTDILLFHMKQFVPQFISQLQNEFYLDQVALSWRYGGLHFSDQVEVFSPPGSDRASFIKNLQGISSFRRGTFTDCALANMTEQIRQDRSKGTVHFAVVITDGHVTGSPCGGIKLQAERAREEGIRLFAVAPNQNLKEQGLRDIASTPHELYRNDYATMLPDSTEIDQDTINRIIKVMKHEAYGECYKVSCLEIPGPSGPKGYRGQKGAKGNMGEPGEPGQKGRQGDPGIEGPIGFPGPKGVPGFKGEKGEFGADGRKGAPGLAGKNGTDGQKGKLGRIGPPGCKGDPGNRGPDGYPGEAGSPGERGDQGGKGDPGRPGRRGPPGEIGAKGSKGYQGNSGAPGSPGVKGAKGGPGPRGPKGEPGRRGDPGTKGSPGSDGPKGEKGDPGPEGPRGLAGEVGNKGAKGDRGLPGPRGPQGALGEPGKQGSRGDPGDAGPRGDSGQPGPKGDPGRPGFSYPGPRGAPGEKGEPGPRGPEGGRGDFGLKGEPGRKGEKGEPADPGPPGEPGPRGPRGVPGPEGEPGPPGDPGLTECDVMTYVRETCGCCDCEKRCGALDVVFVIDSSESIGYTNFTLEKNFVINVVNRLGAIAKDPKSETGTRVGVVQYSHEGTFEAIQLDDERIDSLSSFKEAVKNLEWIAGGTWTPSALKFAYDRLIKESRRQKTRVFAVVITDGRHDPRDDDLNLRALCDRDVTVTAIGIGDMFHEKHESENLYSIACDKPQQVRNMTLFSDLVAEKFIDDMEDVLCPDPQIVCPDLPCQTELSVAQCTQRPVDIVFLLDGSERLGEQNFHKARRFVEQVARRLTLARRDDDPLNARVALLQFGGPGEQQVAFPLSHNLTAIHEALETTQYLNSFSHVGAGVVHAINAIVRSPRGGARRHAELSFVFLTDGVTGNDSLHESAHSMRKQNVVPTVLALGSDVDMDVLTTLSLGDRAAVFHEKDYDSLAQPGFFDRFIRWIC
T1 sequence (P12111 26-3177): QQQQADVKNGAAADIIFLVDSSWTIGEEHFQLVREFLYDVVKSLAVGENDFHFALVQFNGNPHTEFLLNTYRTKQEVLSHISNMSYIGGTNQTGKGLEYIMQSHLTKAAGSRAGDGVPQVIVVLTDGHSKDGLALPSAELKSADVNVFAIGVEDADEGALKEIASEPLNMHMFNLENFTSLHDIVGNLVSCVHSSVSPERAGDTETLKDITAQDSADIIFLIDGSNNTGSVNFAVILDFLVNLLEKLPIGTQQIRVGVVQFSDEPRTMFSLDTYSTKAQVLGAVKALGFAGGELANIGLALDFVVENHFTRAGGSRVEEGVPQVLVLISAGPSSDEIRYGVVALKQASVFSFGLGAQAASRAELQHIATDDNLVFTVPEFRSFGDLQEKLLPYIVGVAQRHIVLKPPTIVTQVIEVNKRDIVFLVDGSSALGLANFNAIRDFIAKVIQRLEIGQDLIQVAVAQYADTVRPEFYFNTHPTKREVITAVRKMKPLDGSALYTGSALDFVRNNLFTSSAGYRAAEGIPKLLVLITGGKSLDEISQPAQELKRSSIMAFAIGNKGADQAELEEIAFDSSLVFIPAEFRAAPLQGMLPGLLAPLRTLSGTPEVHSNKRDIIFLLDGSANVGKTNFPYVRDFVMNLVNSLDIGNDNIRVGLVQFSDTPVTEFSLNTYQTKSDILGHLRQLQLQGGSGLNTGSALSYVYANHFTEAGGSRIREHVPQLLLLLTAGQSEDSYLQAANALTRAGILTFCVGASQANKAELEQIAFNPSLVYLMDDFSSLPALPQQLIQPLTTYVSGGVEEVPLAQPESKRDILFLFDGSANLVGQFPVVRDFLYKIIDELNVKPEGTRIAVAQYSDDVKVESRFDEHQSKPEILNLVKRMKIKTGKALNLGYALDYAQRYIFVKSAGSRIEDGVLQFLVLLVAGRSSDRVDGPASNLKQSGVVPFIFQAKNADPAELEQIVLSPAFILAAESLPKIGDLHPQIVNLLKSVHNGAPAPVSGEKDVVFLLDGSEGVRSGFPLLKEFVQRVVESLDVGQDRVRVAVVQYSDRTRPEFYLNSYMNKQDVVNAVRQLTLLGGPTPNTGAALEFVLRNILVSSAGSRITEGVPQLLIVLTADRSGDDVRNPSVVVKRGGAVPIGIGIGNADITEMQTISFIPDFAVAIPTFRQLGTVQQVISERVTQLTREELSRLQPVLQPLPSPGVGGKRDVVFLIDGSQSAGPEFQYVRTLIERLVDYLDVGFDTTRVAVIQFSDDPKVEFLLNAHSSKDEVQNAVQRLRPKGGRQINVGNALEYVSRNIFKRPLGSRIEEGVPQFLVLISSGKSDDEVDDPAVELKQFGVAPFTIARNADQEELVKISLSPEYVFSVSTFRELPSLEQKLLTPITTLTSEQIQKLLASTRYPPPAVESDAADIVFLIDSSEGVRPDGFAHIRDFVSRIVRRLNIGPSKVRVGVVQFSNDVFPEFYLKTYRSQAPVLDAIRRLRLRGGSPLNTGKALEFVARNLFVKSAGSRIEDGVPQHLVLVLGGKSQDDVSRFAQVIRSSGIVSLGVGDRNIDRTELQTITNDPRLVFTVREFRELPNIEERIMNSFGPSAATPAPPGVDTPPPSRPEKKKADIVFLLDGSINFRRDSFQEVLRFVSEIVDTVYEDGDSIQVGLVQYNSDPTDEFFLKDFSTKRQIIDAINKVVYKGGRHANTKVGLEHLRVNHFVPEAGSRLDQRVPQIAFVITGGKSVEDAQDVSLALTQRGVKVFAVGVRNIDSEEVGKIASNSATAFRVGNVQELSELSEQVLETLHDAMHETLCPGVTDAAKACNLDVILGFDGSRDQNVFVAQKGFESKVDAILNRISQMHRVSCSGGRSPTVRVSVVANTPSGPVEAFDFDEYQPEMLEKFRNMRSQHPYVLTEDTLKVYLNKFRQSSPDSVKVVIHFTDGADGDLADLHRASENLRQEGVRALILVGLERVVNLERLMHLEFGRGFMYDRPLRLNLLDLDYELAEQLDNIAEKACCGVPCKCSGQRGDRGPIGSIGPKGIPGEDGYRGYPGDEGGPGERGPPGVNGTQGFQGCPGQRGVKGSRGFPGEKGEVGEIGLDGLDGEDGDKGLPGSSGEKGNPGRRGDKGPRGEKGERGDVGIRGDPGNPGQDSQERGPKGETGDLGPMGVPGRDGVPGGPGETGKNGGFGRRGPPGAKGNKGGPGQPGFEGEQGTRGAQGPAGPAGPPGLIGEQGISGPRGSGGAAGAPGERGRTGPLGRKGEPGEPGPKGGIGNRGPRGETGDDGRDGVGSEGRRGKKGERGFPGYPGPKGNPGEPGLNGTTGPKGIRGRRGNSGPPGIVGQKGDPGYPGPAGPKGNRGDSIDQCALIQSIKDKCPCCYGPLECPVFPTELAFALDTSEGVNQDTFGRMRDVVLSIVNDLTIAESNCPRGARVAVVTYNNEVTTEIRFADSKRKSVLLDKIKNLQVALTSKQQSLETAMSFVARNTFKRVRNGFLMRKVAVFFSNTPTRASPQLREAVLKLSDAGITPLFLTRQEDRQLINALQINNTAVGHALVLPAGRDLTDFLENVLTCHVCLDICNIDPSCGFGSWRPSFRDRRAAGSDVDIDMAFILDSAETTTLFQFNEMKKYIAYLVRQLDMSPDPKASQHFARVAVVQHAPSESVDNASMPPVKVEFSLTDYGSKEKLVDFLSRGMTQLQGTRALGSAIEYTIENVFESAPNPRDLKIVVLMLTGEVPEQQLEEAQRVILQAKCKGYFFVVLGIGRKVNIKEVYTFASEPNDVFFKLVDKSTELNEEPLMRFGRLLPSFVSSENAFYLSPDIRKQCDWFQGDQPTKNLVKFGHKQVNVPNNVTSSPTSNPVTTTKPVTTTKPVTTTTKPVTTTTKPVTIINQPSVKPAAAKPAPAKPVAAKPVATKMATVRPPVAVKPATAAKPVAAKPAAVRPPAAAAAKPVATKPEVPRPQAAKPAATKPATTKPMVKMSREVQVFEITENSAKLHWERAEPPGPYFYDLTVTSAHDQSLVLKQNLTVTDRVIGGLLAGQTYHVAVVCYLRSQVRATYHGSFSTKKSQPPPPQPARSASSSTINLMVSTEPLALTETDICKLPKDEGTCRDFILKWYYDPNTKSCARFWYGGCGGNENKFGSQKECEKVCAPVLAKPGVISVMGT

B1: zsig37: adipocyte complement related protein homolog, polypeptide of SEQ ID NO:2, inhibits collagen-mediated platelet activation and the complement pathway (protein, listed as Homo sapiens)
chain: MGSRGQGLLLAYCLLLAFASGLVLSRVPHVQGEQQEWEGTEELPSPPDHAERAEEQHEKYRPSQDQGLPASRCLRCCDPGTSMYPATAVPQINITILKGEKGDRGDRGLQGKYGKTGSAGARGHTGPKGQKGSMGAPGERCKSHYAAFSVGRKKPMHSNHYYQTVIFDTEFVNLYDHFNMFTGKFYCYVPGLYFFSLNVHTWNQKETYLHIMKNEEEVVILFAQVGDRSIMQSQSLMLELREQDQVWVRLYKGERENAIFSEELDTYITFSGYLVKHATEP
With B1 the “binding curve to collagen type VI” value (collagen type VI) was “fits a typical hyperbolic binding curve”, the “inhibition of classical pathway lysis” value ([1]; sensitized sheep erythrocytes) was “effective in inhibiting the classical pathway” and the “inhibition of classical pathway lysis” value ([1]; unsensitized sheep erythrocytes) was “effective in inhibiting the classical pathway”. For the same molecule, the “luciferase expression as percentage of the maximal induction produced by 3 ng/ml bFGF” value [2] was 73 to 75%.
